# Experiments:
# [1] = target: the molecule itself; test: SEC-MALS; peak fraction of the gel filtration-pure HDAC1:MTA1:MBD2 complex re-run on Superose 6 with refractive index and MALS detectors
# [2] = target: T1, Strep-MBD2 (residues 114–411) (UniProt Q9UBB5 114-411); test: co-IP; HEK293F cells co-transfected with His10-Flag3-MTA1 construct, HDAC1 and MBD2; clarified lysate on FLAG resin 30 min, washes in 50 mM Tris-HCl pH 7.5, 100 mM potassium acetate, 5% glycerol, RNase A, elution with TEV protease; SDS-PAGE; DNA ratios 1:1:1 and 1:1:4; conditions: partners not purified
# T1 construct: MBD2, residues 114–411; source: HEK293F, co-transfected, in lysate; co-purified (FLAG resin, TEV protease, Superose 6)
# [3] = target: T2, MBD2 (residues 145–411) (UniProt Q9UBB5 145-411); test: as above; conditions: partners not purified
# T2 construct: also called untagged MBD2; source: HEK293F, co-transfected, in lysate; co-purified (FLAG resin, TEV protease, Superose 6)
# [4] = target: T3, HDAC1 (residues 1–482) (UniProt Q13547 1-482); test: as above; conditions: partners not purified
# T3 construct: Two copies stand in the HDAC1:MTA1 dimer complex; also called histone deacetylase 1; source: HEK293F, co-transfected, in lysate; co-purified (FLAG resin, TEV protease, Superose 6)
# [5] = target: the molecule itself; test: SEC; FLAG-purified, TEV-eluted co-expressed complex run on a Superose 6 column; fractions on SDS-PAGE
# [6] = target: the molecule itself; test: cryo-EM structure; co-expressed complexes purified by gel filtration, on graphene oxide grids; maps of 6.1, 4.5 and 19 Å with known structures docked as rigid bodies
# [7] = target: T3, HDAC1 (residues 1–482); test: as above; conditions: both partners purified
# T3 sequence (Q13547 whole entry, the tested form may be a part): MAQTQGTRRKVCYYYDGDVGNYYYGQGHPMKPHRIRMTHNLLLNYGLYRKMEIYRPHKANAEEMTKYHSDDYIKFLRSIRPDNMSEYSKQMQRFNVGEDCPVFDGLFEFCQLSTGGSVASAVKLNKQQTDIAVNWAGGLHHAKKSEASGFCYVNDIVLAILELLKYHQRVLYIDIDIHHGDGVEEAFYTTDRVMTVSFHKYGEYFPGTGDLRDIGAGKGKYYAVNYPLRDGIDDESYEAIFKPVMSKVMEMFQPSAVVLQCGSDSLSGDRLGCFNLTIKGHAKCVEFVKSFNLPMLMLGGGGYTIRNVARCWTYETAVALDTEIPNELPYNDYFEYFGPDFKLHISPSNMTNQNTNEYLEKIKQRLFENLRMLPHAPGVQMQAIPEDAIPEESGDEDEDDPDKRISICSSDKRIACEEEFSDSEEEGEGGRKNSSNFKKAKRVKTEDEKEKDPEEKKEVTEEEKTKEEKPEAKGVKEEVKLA
# T2 sequence (Q9UBB5 145-411): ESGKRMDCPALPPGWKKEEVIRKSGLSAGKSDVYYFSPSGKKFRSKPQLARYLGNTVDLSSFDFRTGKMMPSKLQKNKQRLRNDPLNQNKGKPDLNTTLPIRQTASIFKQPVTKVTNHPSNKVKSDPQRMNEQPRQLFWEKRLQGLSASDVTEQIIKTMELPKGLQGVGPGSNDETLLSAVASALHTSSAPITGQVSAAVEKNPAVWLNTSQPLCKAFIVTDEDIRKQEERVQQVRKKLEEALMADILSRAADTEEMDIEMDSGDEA
# T1 sequence (Q9UBB5 114-411): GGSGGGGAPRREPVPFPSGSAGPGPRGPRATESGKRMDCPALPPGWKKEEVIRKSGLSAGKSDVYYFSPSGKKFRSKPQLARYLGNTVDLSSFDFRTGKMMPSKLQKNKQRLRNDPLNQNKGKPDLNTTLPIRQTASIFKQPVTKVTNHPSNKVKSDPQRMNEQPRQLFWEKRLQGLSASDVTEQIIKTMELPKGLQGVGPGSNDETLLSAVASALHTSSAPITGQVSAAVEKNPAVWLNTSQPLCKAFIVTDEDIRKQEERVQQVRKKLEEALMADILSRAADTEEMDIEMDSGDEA
binding result [2],binding result [3],binding result [4],binding result [7],Binder,stoichiometry N [1],binding result [5],binding result [6]
binds,binds,binds,,"MTA1 ELM2-SANT domain (residues 162–354) (domain or fragment, UniProt Q13330 162-354, looked up, The tag held the complex on the FLAG resin; it was cleaved off by TEV protease before gel filtration, SEC-MALS, the Strep-Tactin step and cryo-EM; also called MTA1 wildtype; source: HEK293F, co-transfected, in lysate; co-purified (FLAG resin, TEV protease, Superose 6); not shown: His10-Flag3, N-terminal, kept) ADKGEIRVGNRYQADITDLLKEGEEDGRDQSRLETQVWEAHNPLTDKQIDQFLVVARSVGTFARALDCSSSVRQPSLHMSAAAASRDITLFHAMDTLHKNIYDISKAISALVPQGGPVLCRDEMEEWSASEANLFEEALEKYGKDFTDIQQDFLPWKSLTSIIEYYYMWKTTDRYVQQKRLKAAEAESKLKQV",2,,
,binds,binds,,"MTA1-Δ12 (MTA1 162–354 with part of ELM2 helix 2 deleted) (domain or fragment, UniProt Q13330 162-354, looked up, Tag cleaved off by TEV protease before the gel filtration; Runs as a dimeric and a monomeric species on Superose 6; source: HEK293F, co-transfected, in lysate; co-purified (FLAG resin, TEV protease, Superose 6); not shown: His10-Flag3, N-terminal, kept) ADKGEIRVGNRYQADITDLLKEGEEDGRDQSRLETQVWEAHNPLTDKQIDQFLVVARSVGTFARALDCSSAASRDITLFHAMDTLHKNIYDISKAISALVPQGGPVLCRDEMEEWSASEANLFEEALEKYGKDFTDIQQDFLPWKSLTSIIEYYYMWKTTDRYVQQKRLKAAEAESKLKQV",,binds,
,,,binds,"MTA1 BAH-ELM2-SANT-ZnF (residues 1–453) (domain or fragment, UniProt Q13330 1-453, looked up, MTA1, BAH, ELM2, SANT and GATA zinc finger domains, residues 1–453; also called extended MTA1 construct; source: HEK293F, co-transfected; co-purified (FLAG resin, TEV protease, Superose 6); not shown: His10-Flag3, N-terminal, cleaved) MAANMYRVGDYVYFENSSSNPYLIRRIEELNKTANGNVEAKVVCFYRRRDISSTLIALADKHATLSVCYKAGPGADNGEEGEIEEEMENPEMVDLPEKLKHQLRHRELFLSRQLESLPATHIRGKCSVTLLNETESLKSYLEREDFFFYSLVYDPQQKTLLADKGEIRVGNRYQADITDLLKEGEEDGRDQSRLETQVWEAHNPLTDKQIDQFLVVARSVGTFARALDCSSSVRQPSLHMSAAAASRDITLFHAMDTLHKNIYDISKAISALVPQGGPVLCRDEMEEWSASEANLFEEALEKYGKDFTDIQQDFLPWKSLTSIIEYYYMWKTTDRYVQQKRLKAAEAESKLKQVYIPNYNKPNPNQISVNNVKAGVVNGTGAPGQSPGAGRACESCYTTQSYQWYSWGPPNMQCRLCASCWTYWKKYGGLKMPTRLDGERPGPNRSNMSPHGL",,,binds

# — paper PMC7736783 (Nucleic Acids Research, 2020)
